In US20140079711A1 (Janssen / Centocor, published 2014):
Positions count from the first letter of the chain named. Names and notes keep the numbering of the source.

T1: recombinant CD147 ECD-Flag construct (construct #3364, human CD147 ECD1-192) (human, UniProt Q865R3 22-192 (bovine entry))
T1 sequence: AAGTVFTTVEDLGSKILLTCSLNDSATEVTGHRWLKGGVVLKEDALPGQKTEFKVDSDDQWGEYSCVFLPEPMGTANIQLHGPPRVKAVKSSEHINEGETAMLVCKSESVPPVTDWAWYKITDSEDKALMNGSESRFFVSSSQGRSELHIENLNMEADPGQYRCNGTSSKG

T2: CD147-FL-ECD (Asp19-192 of SEQ ID NO: 1) (human, UniProt Q865R3 19-192 (bovine entry))
T2 construct: The Asp19 N-terminus is stated for the hexa-His ECD-FL; also called ECD-FL; CD147 ECD
T2 sequence: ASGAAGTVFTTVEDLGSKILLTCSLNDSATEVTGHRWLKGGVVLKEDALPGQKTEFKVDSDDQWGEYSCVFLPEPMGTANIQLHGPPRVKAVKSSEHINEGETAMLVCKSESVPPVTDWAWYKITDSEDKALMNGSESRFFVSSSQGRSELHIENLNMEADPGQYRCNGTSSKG

T3: native human CD147 on MDA-MB-231 breast carcinoma cells (human, UniProt P35613 140-385)
T3 construct: also called EMMPRIN; MDA-MB-231 cells
T3 sequence: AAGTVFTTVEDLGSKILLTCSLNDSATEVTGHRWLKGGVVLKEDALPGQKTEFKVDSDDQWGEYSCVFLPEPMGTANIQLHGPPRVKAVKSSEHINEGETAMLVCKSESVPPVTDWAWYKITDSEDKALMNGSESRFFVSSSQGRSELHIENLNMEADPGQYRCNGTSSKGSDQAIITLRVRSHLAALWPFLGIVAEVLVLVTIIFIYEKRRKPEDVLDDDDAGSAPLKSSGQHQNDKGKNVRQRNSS

B1: 2C8(mIgG1) (antibody, V domains shown)
VH: EMKLEESGGGLVQPGGSMKLSCVASGFTFSNYRMNWVRQSPEKGLEWVAQIRLKSYNYATHYAESVKGRFTISRDDSKSSVYLQMNNLRAEDTGIYYCTPDGSDYWGQGTTLTVSS
VL: DILMTQSPSSMSVSLGDTVSITCHASQGISSSIGWLQQKPGKSFKGLIYHGTNLEDGVPSRFTGSGSGADYSLTISSLESEDFADYYCVQYAQFPYTFGGGTKLEIK
notes: Murine IgG1 from hybridoma; also called C1170A; C1170
B2: 4A5(mIgG1) (antibody, V domains shown)
VH: EVQLQQSGPELVKPGASVKISCKASGYTFTDYYMNWVKQSHGKSLEWIGGINPNNGGTSYNQKFKGKATLTVDKSSSTAYMELRSLTSEDSAVYYCARNDGYRGYAMDYWGQGTSVTVSS
VL: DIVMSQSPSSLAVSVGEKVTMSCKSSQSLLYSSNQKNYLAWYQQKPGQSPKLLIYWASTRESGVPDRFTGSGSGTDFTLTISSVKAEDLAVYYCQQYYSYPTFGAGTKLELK
notes: Murine IgG1 from hybridoma; also called C1177A; 4A5 mAb
B3: 5F6(mIgG1) (antibody, V domains shown)
VH: B1 VH with R33W
VL: SIVMTQTPKFLLVSAGDRVTITCKASQSVSNDVAWYQQKPGQSPKLLIYYASNRYTGVPDRFTGSGYGTDFTFTISTVQAEDLAVYFCQQDYSSPYTFGGGTKLEIK
notes: Murine IgG1 from hybridoma; Two light chain V-regions were found for 5F6; also called C1171A; 5F6 mAb

Experiments:
[1] = target: T1, recombinant CD147 ECD-Flag construct …; assay: cell-based or functional assay
[2] = target: T2, CD147-FL-ECD (Asp19-192 of SEQ ID NO: 1); assay: SPR (Biacore 3000), mAb captured by anti-mouse Fc, CD147-FL-ECD injected
Protocol: Affinity for the CD147 ECD was also measured by surface plasmon resonance (Biacore). Kinetic studies were performed at 25° C. using a BIACORE 3000 (BIAcore, Inc.) surface plasmon resonance (SPR) instrument. Goat anti-mouse Fcy specific antibody (Jackson Immunoresearch laboratories Prod #115-005-071) was covalently attached to carboxymethyl dextran coated gold surfaces (CM-5 Chip, Biacore). The carboxymethyl groups of dextran were activated with N-Ethyl-N′-(3-Dimethylaminopropyl)carbodiimide (EDC) and N-hydroxysuccinimide (NHS). The Ab was attached at pH 4.5 in 10 mM sodium acetate. Any remaining reactive sites on the surface were blocked by reaction with ethanolamine.
For kinetic binding measurements, anti-CD147 mAbs were captured using an anti-mouse Fcy specific antibody at a flow rate of 30 μL/min. Ab capture was followed by injection of CD147-FL-ECD or the N- or C-domain fragments (as described in Example 1) at concentrations between 75 and 300 nM at 60 μL/min. Association data was collected for 2 min followed by 10 min of dissociation. The surface was regenerated with 15 μL of 100 mM H3PO4, followed by 15 μL of 50 mM NaOH at 30 μL/min. All samples were prepared in D-PBS containing 3 mM EDTA and 0.005% surfactant P20. Data reported is the difference in SPR signal between the flow cell containing the captured antibody and a reference cell without captured antibody. Additional instrumental contributions to the signal were removed by subtraction of the data from the blank injection from the reference-subtracted signal. Data were analyzed by fitting association and dissociation phases at all concentrations using the BIAevaluation software (BIAcore, Inc.).

[3] = target: T3, native human CD147 on MDA-MB-231 breast …; assay: live cell binding assay on MDA-MB-231 cells, HRP-conjugated secondary antibody, OD 490, antibody at 10 ug/ml

Row | Binder | MMP-1 IC50 [1] [µg/mL] | Kd [2] [nM] | binding result [3]
1 | B1 | 20 | 5 | 
2 | B2 |  | 100 | binds
3 | B3 |  | 4 | 
